Measurements taken from patent US20090227528A1, “Pulmonary administration of an antithrombotic compound” (priority 2004, published 2009).
Read-outs that look alike come from different tables or passages of the source.

Tests used:
[1] = Comparative study between intravenous and intratracheal administration of Org 42675 (plasma concentration via anti-Xa activity, amidolytic S2222); assay type: in vivo, male Wistar rats; conditions: male, Wistar, rat; for AUC(0-inf) / AUC(0-t) / Cmax / bioavailability: 100 nmol/kg; for bioavailability: other: intratracheal, 100 nmol/kg intratracheal vs i.v. (100%), read-out: F (% bioavailabilty)
Method: The test was carried out in male Wistar rats of 300-400 gr. The rats were anaesthetised by inhalation of a mixture of O2/N2O/isoflurane, after which the right jugular vein was cannulated. Translumination of the neck enabled visibility of the vocal cords and an oral needle was inserted when the vocal cords were open after which 100 μl/300 gr body weight of a solution prepared from the pharmaceutical formulation of Example 1, diluted with an aqueous 0.9% sodium chloride solution, containing 300 nmol of Org 42675/ml was instilled at approximately 1 cm before the bifurcation of the trachea. The same solution and dose was also used to perform the i.v. study. After i.v. administration blood was sampled at 1, 6, 15, 30 and 60 minutes and after 2, 4, 7 and 24 hours. After intra-tracheal administration blood was sampled at 0.5-1-2-4-7 and 24 hours after administration. Blood was centrifuged and the plasma was siphoned off and stored at −20° C. until use. The concentration of Org 42675 was measured amidolytically with S2222 (Chromogenix, Chromogenics Ltd, Molndal, Sweden) by determination of the anti-Xa activity based on the method of Teien and Lie in the obtained plasma samples against a calibration curve which was made of the stock solution of 300 nmol/ml itself. (Teien A N, Lie M. Evaluation of an amidolytic heparin assay method increased sensitivity by adding purified antithrombin III. Thromb. Res. 1977, 10: 399-410). The concentration in the samples was expressed in nmol/ml and the kinetic parameters were calculated with the noncompartment model of WinNonlin (see Tables 1 and 2). After intratracheal administration the maximum concentration was already obtained at 0.5 hour after administration which was also the first time point of blood collection.

[2] = in vivo; cited from earlier work
[3] = rabbit, in vivo; cited from earlier work
[4] = inhaled or intranasal, 100 nmol/kg intratracheal, individual rats
[5] = inhaled or intranasal, 100 nmol/kg intratracheal, mean (n=3)
[6] = iv, 100 nmol/kg intravenous, individual rats
[7] = iv, 100 nmol/kg intravenous, mean (n=2)

| Compound | Tmax [1, 4] [min] | AUC(0-inf) [1, 4] [µM·h] | AUC(0-t) [1, 4] [µM·h] | Cmax [1, 4] [nM] | AUC(0-inf) [1, 5] [µM·h] | AUC(0-t) [1, 5] [µM·h] | Cmax [1, 5] [nM] | AUC(0-inf) [1, 6] [µM·h] | AUC(0-t) [1, 6] [µM·h] | Cmax [1, 6] [nM] | AUC(0-inf) [1, 7] [µM·h] | AUC(0-t) [1, 7] [µM·h] | Cmax [1, 7] [nM] | bioavailability ([1]; individual rats) [%] | bioavailability ([1]; mean (n=3)) [%] | Absolute bioavailability [2] | bioavailability [3] | pharmacokinetics [3] |
| --- | --- | --- | --- | --- | --- | --- | --- | --- | --- | --- | --- | --- | --- | --- | --- | --- | --- | --- |
| COc1cc(C)c(S(=O)(=O)NC(CC(=O)NCCCC(=O)NCCOCCOCCOCCO[C@H]2[C@H](OC)[C@@H](OC)[C@@H](O[C@H]3[C@H](OC)[C@@H](OC)[C@H](O[C@H]4[C@H](OS(=O)(=O)O)[C@@H](OS(=O)(=O)O)[C@@H](O[C@H]5[C@H](OC)[C@@H](OC)[C@H](O[C@H]6[C@H](OC)[C@@H](OS(=O)(=O)O)[C@@H](OC)O[C@@H]6COS(=O)(=O)O)O[C@H]5C(=O)O)O[C@@H]4COS(=O)(=O)O)O[C@@H]3C(=O)O)O[C@@H]2COS(=O)(=O)O)C(=O)NC(Cc2ccc(C(=N)N)cc2)C(=O)N2CCCCC2)c(C)c1C (stereo partly drawn) [Org 42675] | 30 | 5.53 | 5.4 | 640 | 5.07 ± 0.24 | 4.91 | 770 | 8.46 | 8.35 | 3180 | 7.32 ± 1.03 | 7.32 | 2930 | 75.5 | 71 ± 3 |  |  |  |
| heparin |  |  |  |  |  |  |  |  |  |  |  |  |  |  |  | 35-60% | low | poor |
